The values that follow come from PMC2939065, “Nephrocystin-1 Forms a Complex with Polycystin-1 via a Polyproline Motif/SH3 Domain Interaction and Regulates the Apoptotic Response in Mammals” (PLoS ONE, 2010).

Assay [1] concerns the target T1, NPHP1-SH3 (15N-labelled SH3 domain of nephrocystin-1 for NMR and ITC) (human, UniProt O15259 147-212).
T1 construct: Nephrocystin-1 (NPHP1), human, SH3 domain, codons 147-212, expressed from pGEX-2T; 15N isotope label for NMR; also called 15N NPHP1-SH3
T1 sequence (looked up): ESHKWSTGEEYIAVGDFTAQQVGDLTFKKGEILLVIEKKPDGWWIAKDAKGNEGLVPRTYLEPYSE
The assay can be described thus: NMR titration; 1H-15N HSQC of 15N NPHP1-SH3 (0.3 mM) with added peptide (0, 0.5, 1, 1.5, 2, 3, 4 equivalents for peptPP2); fast exchange. The following applies: both partners purified.

The target of assay [2] is T2, NPHP1-SH3 (15N-labelled SH3 domain of nephrocystin-1 for NMR and ITC) (Homo sapiens (Human), UniProt O15259).
T2 chain: T1 sequence (looked up)
Description: NMR titration (1H-15N HSQC).

B1: peptPP2 (peptide)
peptide: Ac-GLRPALPSRLARAS-NH2
notes: stretch of the PC-1 C-tail containing PP2 (P4267ALPSR4272), aminoacids 4264-4277; also called PP2 peptide; source: synthetic peptide, bought: CASLO (Lyngby, Denmark)
For B1, the Kd in assay [1] was 300 ± 20 µM.

Take Ac-RGSKVSPDVPPPS-NH2 (protein) [peptPP1]: the binding result in assay [2] was “no binding”.
